One molecule from publication PMC5427921, “PRL3 phosphatase active site is required for binding the putative magnesium transporter CNNM3” (Scientific Reports, 2017) can be followed below.

The target of this test is T1, Human phosphatase PRL3, amino acids 1–169 (wild type) (human, UniProt O75365 1-169).
T1 construct: N-terminal extension Gly-Ser-His left after thrombin cleavage of the His tag; phosphatase of regenerating liver 3 (PRL3), human, amino acids 1-169; also called PRL3-wt; wild-type PRL3; not shown: His6, N-terminal, cleaved
Briefly: ITC; syringe 160 μM PRL2 or PRL3, cell 16 μM CNNM3 CBS-pair domain as a GST fusion; 22 °C; 30 injections of 10 μl; fitted to a single set of identical sites. Particulars: both partners purified.

T1 sequence (O75365 other isoform, or with tags, fused parts or gaps): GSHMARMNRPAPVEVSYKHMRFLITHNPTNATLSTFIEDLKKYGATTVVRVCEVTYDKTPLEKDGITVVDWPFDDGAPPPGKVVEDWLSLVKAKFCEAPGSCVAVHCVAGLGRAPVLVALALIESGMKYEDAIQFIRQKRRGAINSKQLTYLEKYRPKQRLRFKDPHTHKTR

B1: CNNM3 CBS-pair domain as a GST fusion (domain or fragment, human)
chain: LRCRTVEDVLTPLEDCFMLDASTVLDFGVLASIMQSGHTRIPVYEEERSNIVDMLYLKDLAFVDPEDCTPLSTITRFYNHPLHFVFNDTKLDAVLEEFKRGKSHLAIVQKVNNEGEGDPFYEVLGLVTLEDVIEEIIRSEILDE
notes: CBS-pair domain of human CNNM3; also called CBS-pair (Bateman) domain of CNNM3
In turn, B1 showed a Kd of 11 nM.
